Patent publication US20200087373A1 (UNIVERSITY OF COPENHAGEN, published 2020)
Ends that are not written are not given here. * marks the point of attachment. C16 diacid = O=C(O)CCCCCCCCCCCCCCC(=O)*

T1: human GIP receptor (human, UniProt P48546 22-466)
T1 sequence (looked up): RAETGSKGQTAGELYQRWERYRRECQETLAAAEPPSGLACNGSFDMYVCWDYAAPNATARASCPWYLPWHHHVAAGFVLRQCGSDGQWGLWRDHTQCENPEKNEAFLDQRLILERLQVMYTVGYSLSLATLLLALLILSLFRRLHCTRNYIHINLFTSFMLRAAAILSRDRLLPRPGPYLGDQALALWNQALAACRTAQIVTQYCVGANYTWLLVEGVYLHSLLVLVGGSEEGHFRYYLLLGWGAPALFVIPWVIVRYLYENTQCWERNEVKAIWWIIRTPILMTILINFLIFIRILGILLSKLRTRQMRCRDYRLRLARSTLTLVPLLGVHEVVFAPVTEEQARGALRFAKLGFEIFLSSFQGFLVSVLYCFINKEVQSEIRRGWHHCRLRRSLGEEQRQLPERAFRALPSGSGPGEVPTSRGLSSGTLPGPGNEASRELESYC

B1: AT315 [hGIP(3-30)NH2[L26K]-C16diacid/26] (peptide)
peptide: EGTFISDYSIAMDKIHQQDFVNWK(C16 diacid)LAQK-NH2
modifications: N-terminus assumed
SMILES: CC[C@H](C)[C@H](NC(=O)[C@H](CO)NC(=O)[C@H](Cc1ccc(O)cc1)NC(=O)[C@H](CC(=O)O)NC(=O)[C@H](CO)NC(=O)[C@@H](NC(=O)[C@H](Cc1ccccc1)NC(=O)[C@@H](NC(=O)CNC(=O)[C@@H](N)CCC(=O)O)[C@@H](C)O)[C@@H](C)CC)C(=O)N[C@@H](C)C(=O)N[C@@H](CCSC)C(=O)N[C@@H](CC(=O)O)C(=O)N[C@@H](CCCCN)C(=O)N[C@H](C(=O)N[C@@H](Cc1c[nH]cn1)C(=O)N[C@@H](CCC(N)=O)C(=O)N[C@@H](CCC(N)=O)C(=O)N[C@@H](CC(=O)O)C(=O)N[C@@H](Cc1ccccc1)C(=O)N[C@H](C(=O)N[C@@H](CC(N)=O)C(=O)N[C@@H](Cc1c[nH]c2ccccc12)C(=O)N[C@@H](CCCCNC(=O)CCCCCCCCCCCCCCC(=O)O)C(=O)N[C@@H](CC(C)C)C(=O)N[C@@H](C)C(=O)N[C@@H](CCC(N)=O)C(=O)N[C@@H](CCCCN)C(N)=O)C(C)C)[C@@H](C)CC
B2: AT312 [hGIP(3-30)NH2[V23K]-C16diacid/23] (peptide)
peptide: EGTFISDYSIAMDKIHQQDFK(C16 diacid)NWLLAQK-NH2
modifications: N-terminus assumed
SMILES: CC[C@H](C)[C@H](NC(=O)[C@H](CO)NC(=O)[C@H](Cc1ccc(O)cc1)NC(=O)[C@H](CC(=O)O)NC(=O)[C@H](CO)NC(=O)[C@@H](NC(=O)[C@H](Cc1ccccc1)NC(=O)[C@@H](NC(=O)CNC(=O)[C@@H](N)CCC(=O)O)[C@@H](C)O)[C@@H](C)CC)C(=O)N[C@@H](C)C(=O)N[C@@H](CCSC)C(=O)N[C@@H](CC(=O)O)C(=O)N[C@@H](CCCCN)C(=O)N[C@H](C(=O)N[C@@H](Cc1c[nH]cn1)C(=O)N[C@@H](CCC(N)=O)C(=O)N[C@@H](CCC(N)=O)C(=O)N[C@@H](CC(=O)O)C(=O)N[C@@H](Cc1ccccc1)C(=O)N[C@@H](CCCCNC(=O)CCCCCCCCCCCCCCC(=O)O)C(=O)N[C@@H](CC(N)=O)C(=O)N[C@@H](Cc1c[nH]c2ccccc12)C(=O)N[C@@H](CC(C)C)C(=O)N[C@@H](CC(C)C)C(=O)N[C@@H](C)C(=O)N[C@@H](CCC(N)=O)C(=O)N[C@@H](CCCCN)C(N)=O)[C@@H](C)CC
B3: AT311 [hGIP(3-30)NH2[F22K]-C16diacid/22] (peptide)
peptide: EGTFISDYSIAMDKIHQQDK(C16 diacid)VNWLLAQK-NH2
modifications: N-terminus assumed
SMILES: CC[C@H](C)[C@H](NC(=O)[C@H](CO)NC(=O)[C@H](Cc1ccc(O)cc1)NC(=O)[C@H](CC(=O)O)NC(=O)[C@H](CO)NC(=O)[C@@H](NC(=O)[C@H](Cc1ccccc1)NC(=O)[C@@H](NC(=O)CNC(=O)[C@@H](N)CCC(=O)O)[C@@H](C)O)[C@@H](C)CC)C(=O)N[C@@H](C)C(=O)N[C@@H](CCSC)C(=O)N[C@@H](CC(=O)O)C(=O)N[C@@H](CCCCN)C(=O)N[C@H](C(=O)N[C@@H](Cc1c[nH]cn1)C(=O)N[C@@H](CCC(N)=O)C(=O)N[C@@H](CCC(N)=O)C(=O)N[C@@H](CC(=O)O)C(=O)N[C@@H](CCCCNC(=O)CCCCCCCCCCCCCCC(=O)O)C(=O)N[C@H](C(=O)N[C@@H](CC(N)=O)C(=O)N[C@@H](Cc1c[nH]c2ccccc12)C(=O)N[C@@H](CC(C)C)C(=O)N[C@@H](CC(C)C)C(=O)N[C@@H](C)C(=O)N[C@@H](CCC(N)=O)C(=O)N[C@@H](CCCCN)C(N)=O)C(C)C)[C@@H](C)CC
B4: AT313 [hGIP(3-30)NH2[N24K]-C16diacid/24] (peptide)
peptide: EGTFISDYSIAMDKIHQQDFVK(C16 diacid)WLLAQK-NH2
modifications: N-terminus assumed
SMILES: CC[C@H](C)[C@H](NC(=O)[C@H](CO)NC(=O)[C@H](Cc1ccc(O)cc1)NC(=O)[C@H](CC(=O)O)NC(=O)[C@H](CO)NC(=O)[C@@H](NC(=O)[C@H](Cc1ccccc1)NC(=O)[C@@H](NC(=O)CNC(=O)[C@@H](N)CCC(=O)O)[C@@H](C)O)[C@@H](C)CC)C(=O)N[C@@H](C)C(=O)N[C@@H](CCSC)C(=O)N[C@@H](CC(=O)O)C(=O)N[C@@H](CCCCN)C(=O)N[C@H](C(=O)N[C@@H](Cc1c[nH]cn1)C(=O)N[C@@H](CCC(N)=O)C(=O)N[C@@H](CCC(N)=O)C(=O)N[C@@H](CC(=O)O)C(=O)N[C@@H](Cc1ccccc1)C(=O)N[C@H](C(=O)N[C@@H](CCCCNC(=O)CCCCCCCCCCCCCCC(=O)O)C(=O)N[C@@H](Cc1c[nH]c2ccccc12)C(=O)N[C@@H](CC(C)C)C(=O)N[C@@H](CC(C)C)C(=O)N[C@@H](C)C(=O)N[C@@H](CCC(N)=O)C(=O)N[C@@H](CCCCN)C(N)=O)C(C)C)[C@@H](C)CC
B5: AT314 [hGIP(3-30)NH2[W25K]-C16diacid/25] (peptide)
peptide: EGTFISDYSIAMDKIHQQDFVNK(C16 diacid)LLAQK-NH2
modifications: N-terminus assumed
SMILES: CC[C@H](C)[C@H](NC(=O)[C@H](CO)NC(=O)[C@H](Cc1ccc(O)cc1)NC(=O)[C@H](CC(=O)O)NC(=O)[C@H](CO)NC(=O)[C@@H](NC(=O)[C@H](Cc1ccccc1)NC(=O)[C@@H](NC(=O)CNC(=O)[C@@H](N)CCC(=O)O)[C@@H](C)O)[C@@H](C)CC)C(=O)N[C@@H](C)C(=O)N[C@@H](CCSC)C(=O)N[C@@H](CC(=O)O)C(=O)N[C@@H](CCCCN)C(=O)N[C@H](C(=O)N[C@@H](Cc1c[nH]cn1)C(=O)N[C@@H](CCC(N)=O)C(=O)N[C@@H](CCC(N)=O)C(=O)N[C@@H](CC(=O)O)C(=O)N[C@@H](Cc1ccccc1)C(=O)N[C@H](C(=O)N[C@@H](CC(N)=O)C(=O)N[C@@H](CCCCNC(=O)CCCCCCCCCCCCCCC(=O)O)C(=O)N[C@@H](CC(C)C)C(=O)N[C@@H](CC(C)C)C(=O)N[C@@H](C)C(=O)N[C@@H](CCC(N)=O)C(=O)N[C@@H](CCCCN)C(N)=O)C(C)C)[C@@H](C)CC

Target: T1, human GIP receptor
Test: cell-based or functional assay

Row | Binder | cAMP agonism, EC50 (log) [log M] | cAMP agonism, Emax [%] | cAMP agonism, nM (EC50) [nM] | cAMP antagonism, log (IC50) [log M] | cAMP antagonism, nM (IC50) [nM]
1 | B1 | -6.7 | 5.9 | 183 | -6.3 | 556
2 | B2 | -5.4 | 54 | 4080 | – | –
3 | B3 | -6.1 | 17.5 | 784 | -6 | 923
4 | B4 | -7 | 7.2 | 97 | -6.5 | 348
5 | B5 | -7.2 | 28.4 | 62 | -7 | 101
